Data from patent US6399352B1, “Plant porphobilinogen synthase and fusion protein thereof” (Paradigm Genetics, Inc., priority 1999, dated 2002).

Experiment: Enzyme activity of plant thioredoxin-porphobilinogen synthase: PBG formation from ALA (EC 4.2.1.24)
Format: biochemical
Settings: 37° C., 1 hour, Tricine buffer pH 7.9, 2.5 mM ALA, 5 mM MgCl2, 1.25 μg purified recombinant protein; Ehrlich's reagent, OD 555 nm
Procedure: Enzyme activity is tested in accordance with EC 4.2.1.24 using the following assay principle: [drawing 1] The enzyme activity of plant thioredoxin-porphobilinogen synthase (T-PPS) is measured as porphobilinogen (PBG) formation from δ-aminolevulinic acid (Aminolevulinate or ALA). A typical reaction is as follows: the reaction is carried out at 37° C. for 1 hour in Tricine buffer pH 7.9 or other suitable biochemical buffer, 2.5 mM ALA, 5 mM MgCl2 and 1.25 μg of purified recombinant protein from E. coli expression system in a final assay volume of 100 μl. PBG is quantified spectrophotometrically after reaction with the 100 μl Ehrlich's reagent solution. Optical density is determined after 60 minutes at 555 nm.

Question: Which “enzyme activity (conversion of ALA to PBG)” value does the source give for “plant thioredoxin-porphobilinogen synthase: fusion protein of thioredoxin and tomato plant porphobilinogen synthase, expressed in E. coli (SEQ ID NO: 2)” here?
Answer: The value was “active”.
